The values below come from publication PMC9370705, “Conformational Dynamics of Human ALKBH2 Dioxygenase in the Course of DNA Repair as Revealed by Stopped-Flow Fluorescence Spectroscopy”.

Usually Kd stands for a measure of binding affinity in units of concentration.

The target of series [1] is T1, ALKBH2 (Homo sapiens, UniProt Q6NS38 1-261).
T1 sequence: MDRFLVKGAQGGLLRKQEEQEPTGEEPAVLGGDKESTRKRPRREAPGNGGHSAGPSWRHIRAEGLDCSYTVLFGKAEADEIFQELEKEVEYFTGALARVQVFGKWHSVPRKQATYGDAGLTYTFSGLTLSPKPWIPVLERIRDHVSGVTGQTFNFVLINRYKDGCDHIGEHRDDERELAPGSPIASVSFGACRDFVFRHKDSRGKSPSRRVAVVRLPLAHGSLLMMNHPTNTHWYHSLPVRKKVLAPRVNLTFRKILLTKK
Nature of the series: Trp fluorescence titration; Fe(II)/2OG complex per Figure 2 legend (text says ALKBH2); 50 mM HEPES-KOH pH 7.5, 50 mM KCl, 10 mM MgCl2, 25 °C (titration, 1 uM enzyme per legend); 2 mM EDTA for apo; stopped-flow buffer not printed in the material. As to conditions: protein: recombinant; (Ni-chelating column); blunt.

Series [2] concerns the target T1, ALKBH2. Nature of the series: stopped-flow εA fluorescence; Fe(II), 2OG; enzyme-product complex after εA repair; 50 mM HEPES-KOH pH 7.5, 50 mM KCl, 10 mM MgCl2, 25 °C (titration, 1 uM enzyme per legend); 2 mM EDTA for apo; stopped-flow buffer not printed in the material. As to conditions: protein: recombinant; (Ni-chelating column); blunt.
Series [3] has as its target T1, ALKBH2. Nature of the series: stopped-flow FRET; Fe(II), 2OG; enzyme-product complex after m1A repair; 50 mM HEPES-KOH pH 7.5, 50 mM KCl, 10 mM MgCl2, 25 °C (titration, 1 uM enzyme per legend); 2 mM EDTA for apo; stopped-flow buffer not printed in the material. As to conditions: protein: recombinant; (Ni-chelating column); label: 5'-FAM and 3'-BHQ1 on strand 1; blunt.

The target in series [4] is T1, ALKBH2. Nature of the series: stopped-flow FRET; Fe(II), 2OG; enzyme-product complex after εA repair; 50 mM HEPES-KOH pH 7.5, 50 mM KCl, 10 mM MgCl2, 25 °C (titration, 1 uM enzyme per legend); 2 mM EDTA for apo; stopped-flow buffer not printed in the material. To be noted: protein: recombinant; (Ni-chelating column); label: 5'-FAM and 3'-BHQ1 on strand 1; blunt.
Series [5] has as its target T1, ALKBH2. Nature of the series: stopped-flow FRET; Fe(II), 2OG; overall KaSF (Eq. 1); 50 mM HEPES-KOH pH 7.5, 50 mM KCl, 10 mM MgCl2, 25 °C (titration, 1 uM enzyme per legend); 2 mM EDTA for apo; stopped-flow buffer not printed in the material. To be noted: protein: recombinant; (Ni-chelating column); label: 5'-FAM and 3'-BHQ1 on strand 1; blunt.
Series [6] addresses T1, ALKBH2. Nature of the series: stopped-flow FRET; Fe(II), 2OG; initial complex k1/k-1; 50 mM HEPES-KOH pH 7.5, 50 mM KCl, 10 mM MgCl2, 25 °C (titration, 1 uM enzyme per legend); 2 mM EDTA for apo; stopped-flow buffer not printed in the material. To be noted: protein: recombinant; (Ni-chelating column); label: 5'-FAM and 3'-BHQ1 on strand 1; blunt.
Series [7] has as its target T1, ALKBH2. Nature of the series: stopped-flow fluorescence (FRET/εA); Fe(II), 2OG; overall KaSF (Eq. 1); 50 mM HEPES-KOH pH 7.5, 50 mM KCl, 10 mM MgCl2, 25 °C (titration, 1 uM enzyme per legend); 2 mM EDTA for apo; stopped-flow buffer not printed in the material. To be noted: protein: recombinant; (Ni-chelating column); label: 5'-FAM and 3'-BHQ1 on strand 1; blunt.
The target of series [8] is T1, ALKBH2. Nature of the series: stopped-flow FRET; Fe(II), 2OG; overall KaSF (Eq. 1); Table 2 rates give about 2.3e5; 50 mM HEPES-KOH pH 7.5, 50 mM KCl, 10 mM MgCl2, 25 °C (titration, 1 uM enzyme per legend); 2 mM EDTA for apo; stopped-flow buffer not printed in the material. As to conditions: protein: recombinant; (Ni-chelating column); label: 5'-FAM and 3'-BHQ1 on strand 1; blunt.

B1: undamaged 15 nt duplex (A instead of m1A); also product A of m1A or εA repair (dsDNA)
DNA 1: ACAGGATCCGGCATA
DNA 2: TATGCCGGATCCTGT
With B1, the figures for the Kd in series [1] and in series [2] were 7.8 ± 1.2 µM and 2200 ± 100 nM, respectively.

B2: repaired product of m1A_FRET or εA_FRET (dsDNA)
DNA 1: ACAGGATCCGGCATA
DNA 2: TATGCCGGATCCTGT
For B2, the Kd in series [3] was 1400 ± 200 nM; in series [4] it was 400 ± 10 nM.

B3: m1A_FRET (dsDNA)
DNA 1: ACAGGATCCGGCATA
DNA 2: TATGCCGGATCCTGT
modifications: N1-methyladenine at position 6 of strand 1
Consider B3, for which, in series [5], the Ka was 600000 M⁻¹.

B4: εA_FRET (dsDNA)
DNA 1: ACAGGATCCGGCATA
DNA 2: TATGCCGGATCCTGT
modifications: 1,N6-ethenoadenine at position 6 of strand 1
For B4, the Ka is 860000 M⁻¹ in series [6] and 1.9e+06 M⁻¹ in series [7].

B5: m3C_FRET (dsDNA)
DNA 1: ACAGGATCCGGCATA
DNA 2: TATGCCGGATCCTGT
modifications: N3-methylcytosine at position 9 of strand 1
On to B5, for which the Ka in series [8] worked out at 460000 M⁻¹; in series [6] it was 230000 M⁻¹.
